Source: US12577571B2, “Mutant DNase1L3 with improved serum half-life” (Texas Tech University System, priority 2019, dated 2026)

Legend:
[1] = tested on: DNA present as chromatin or apoptotic bodies; details: background, Sisirak et al 2016, Napirei et al 2009, Wilber et al 2002; cited from earlier work
plasmid DNA = test: Plasmid DNA degradation by Dnase1L3 (agarose gel); type: biochemical; details: increasing dilutions with 200 ng plasmid DNA, 30 min at 37° C., 200 mM Tris pH 7.4, 50 mM MgCl2, 20 mM CaCl2; 1% agarose gel
Source text: FIGS. 1A to 1E show the results from the modified Dnase1L3 of the present invention. […] (FIG. 1A) Dnase1L3 was affinity purified with Nickel NTA agarose, then cleaved with Tobacco Etch Virus protease TEV protease. Cleaved Dnase1L3 was further purified by anion exchange and then by size exclusion chromatography. Fractions from the final size exclusion purification were resolved by SDS-PAGE and Coomassie stained. Fractions 7-9 show purified Dnase1L3 at the expected 36 kDa size. Molecular weight in kDa is shown. (FIG. 1B) The indicated amounts of purified Dnase1L3 were resolved by SDS-PAGE, transferred to nitrocellulose and probed with anti-Dnase1L3 primary antibody, anti-rabbit HRP secondary antibody and developed with enhanced chemiluminescence. (FIG. 1C) Recombinant, […] mM Tris pH 7.4, 50 mM MgCl2, 20 mM CaCl2 with or without 100 μM Dnase1L3 inhibitors fmoc-D-cyclohexylalanine (FCA) or Pontacyl Violet 6R (PV). Remaining plasmid DNA resolved on a 1% agarose gel. # indicates non-degraded DNA (i.e. supercoiled, nicked and linear DNA). The absence of DNA indicates degradation. (FIG. 1D) Purified Dnase1L3 was conjugated to PEG. Unconjugated Dnase1L3, PEGylated Dnase1L3 (PEG-D1L3), or free PEG were resolved by SDS-PAGE and visualized with Coomassie Blue. The 36 kDa band has increased in size to 41 kDa, indicating successful PEGylation. Molecular weight in kDa is shown. […]

B1: Dnase1: DNase I protein of the background art; poorly digests chromatin DNA (protein, UniProt P24855 23-282, looked up)
Deoxyribonuclease-1: LKIAAFNIQTFGETKMSNATLVSYIVQILSRYDIALVQEVRDSHLTAVGKLLDNLNQDAPDTYHYVVSEPLGRNSYKERYLFVYRPDQVSAVDSYYYDDGCEPCGNDTFNREPAIVRFFSRFTEVREFAIVPLHAAPGDAVAEIDALYDVYLDVQEKWGLEDVMLMGDFNAGCSYVRPSQWSSIRLWTSPTFQWLIPDSADTTATPTHCAYDRIVVAGMLLRGAVVPDSALPFNFQAAYGLSDQLAQAISDHYPVEVMLK
[1]
  digestion of DNA present as chromatin or apoptotic bodies: poorly digests

B2: PEGylated Dnase1L3: Purified Dnase1L3 conjugated to PEG (PEG-maleimide); band shifts from 36 kDa to 41 kDa (conjugate, UniProt Q13609 21-305, looked up)
Deoxyribonuclease gamma: MRICSFNVRSFGESKQEDKNAMDVIVKVIKRCDIILVMEIKDSNNRICPILMEKLNRNSRRGITYNYVISSRLGRNTYKEQYAFLYKEKLVSVKRSYHYHDYQDGDADVFSREPFVVWFQSPHTAVKDFVIIPLHTTPETSVKEIDELVEVYTDVKHRWKAENFIFMGDFNAGCSYVPKKAWKNIRLRTDPRFVWLIGDQEDTTVKKSTNCAYDRIVLRGQEIVSSVVPKSNSVFDFQKAYKLTEEEALDVSDHFPVEFKLQSSRAFTNSKKSVTLRKKTKSKRS
modifications: PEG-maleimide conjugate
notes: Purified Dnase1L3 conjugated to PEG (PEG-maleimide); band shifts from 36 kDa to 41 kDa
Plasmid DNA
  endonuclease activity (degradation of plasmid DNA): potent endonuclease
